Laboratory results as given in patent US20260098059A1 (ENDOMET BIOSCIENCES, published 2026).
“And” between values parts separate entries of the source, which are not always exact repeats. Identical values can stand only once. Values belong to the binder of their own block, whether it stands above or below them. Bridges are numbered along the chain shown (N, C = ends). Where no end group is shown, it is not given here. [ ]: non-standard residue; d: D form. Chg = N[C@H](C(=O)O)C1CCCCC1; NMeA = CN[C@@H](C)C(=O)O

Target: T1, β-catenin (UniProt P35222 134-665, limits assumed, biotinylated in the SPR and plate assays)
T1 construct: also called beta catenin; biotinylated β-catenin
T1 sequence (looked up): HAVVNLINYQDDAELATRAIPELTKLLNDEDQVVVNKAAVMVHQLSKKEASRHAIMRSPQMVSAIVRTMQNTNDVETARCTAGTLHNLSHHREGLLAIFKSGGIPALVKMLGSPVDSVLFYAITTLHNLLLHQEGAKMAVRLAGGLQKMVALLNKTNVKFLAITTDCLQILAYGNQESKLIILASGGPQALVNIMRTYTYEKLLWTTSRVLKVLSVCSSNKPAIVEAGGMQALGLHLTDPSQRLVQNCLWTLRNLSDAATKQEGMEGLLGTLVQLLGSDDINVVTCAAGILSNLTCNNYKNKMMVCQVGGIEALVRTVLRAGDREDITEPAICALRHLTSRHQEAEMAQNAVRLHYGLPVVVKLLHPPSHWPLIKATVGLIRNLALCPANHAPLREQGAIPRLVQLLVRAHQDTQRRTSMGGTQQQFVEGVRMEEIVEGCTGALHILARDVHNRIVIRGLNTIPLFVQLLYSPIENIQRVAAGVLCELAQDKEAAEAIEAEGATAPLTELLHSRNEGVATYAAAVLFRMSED
Assay: competitive FP
Source text: Fluorescence polarization (FP) is another method used to analyze protein-ligand interactions. This methodology measures the change in fluorescence light emitted by a labelled compound free vs. conjugated to another compound in solution. Upon binding of the fluorescent molecule to a complex, polarization increases because of limited rotation of the fluorescent tracer. Competitive FP is often utilized in drug screens as it is formatted for high throughput screens in a plate format. This immunoassay is performed by introducing a non-conjugated drug to compete for binding to the labelled competitor-ligand complex, leading to a reduction in polarization. […] Exemplary methodology is described in Example 13. Data were analyzed and plotted in Microsoft Excel (Microsoft, Redmond, WA).
Varying concentrations of β-catenin inhibitor candidate (SEQ ID NO: 404) were then added in a series of serial dilutions from 10 nM to 30 uM of inhibitor in different wells of the plate. The fluorescence polarization was read by Infinite M1000 (Tecan, Baldwin Park CA) at excitation wavelength of 470 nm and measured at emission wavelength of 520 nm. […] The experiments were performed three times and data were analyzed and plotted in Microsoft Excel (Microsoft, Redmond, WA).

B1: SEQ ID NO: 466 (peptide)
peptide: Ac-W[NMeA]QSILDEH[Chg]QKVW-NH2
modifications: lactam 8-12; not fully specified; printed as Ac-NH-W-NMeA-QSILDE*H-Chg-QK*VW-NH2
Kd: ≤ 400 nM

B2: SEQ ID NO: 243 (peptide)
peptide: KWFLIXAWD
HELM: PEPTIDE1{[ac].K.W.F.L.I.[Abu].A.W.D}$PEPTIDE1,PEPTIDE1,2:R3-10:R3$$$V2.0
SMILES: CC[C@@H]1NC(=O)[C@H]([C@@H](C)CC)NC(=O)[C@H](CC(C)C)NC(=O)[C@H](Cc2ccccc2)NC(=O)[C@H](Cc2c[nH]c3ccccc23)NC(=O)[C@@H](NC(C)=O)CCCCNC(=O)C[C@@H](C(=O)O)NC(=O)[C@H](Cc2c[nH]c3ccccc23)NC(=O)[C@H](C)NC1=O
Kd: > 10000 nM and ≤ 30000 nM

Binder: H-MWFLISFWA-OH [SEQ ID NO: 7]
Kd: > 10000 nM and ≤ 30000 nM

Binder: KWFLICAWD (not fully specified; cyclo-H2N-K(Ahx*)WFLICAWD*-COOH) [SEQ ID NO: 249]
Kd: > 400 nM and ≤ 1000 nM

Binder: H-MWALISFWG-OH [SEQ ID NO: 13]
Kd: > 400 nM and ≤ 1000 nM

Binder: KWFLICAWD (not fully specified; cyclo-H2N-K(GABA*)WFLICAWD*-COOH) [SEQ ID NO: 247]
Kd: ≤ 400 nM

Binder: H-MWFLASFWG-OH [SEQ ID NO: 11]
Kd: > 400 nM and ≤ 1000 nM

B3: SEQ ID NO: 470 (peptide)
peptide: Ac-W[NMeA]QSILDEH[Chg]QKVWG-NH2
modifications: lactam 8-12; not fully specified; printed as Ac-NH-W-NMeA-QSILDE*H-Chg-QK*VWG-NH2
Kd: ≤ 400 nM

B5: SEQ ID NO: 460 (peptide)
peptide: Ac-W[NMeA]QSILDKH[Chg]QDVW-NH2
modifications: lactam 8-12; not fully specified; printed as Ac-NH-W-NMeA-QSILDK*H-Chg-QD*VW-NH2
Kd: ≤ 400 nM

B11: SEQ ID NO: 230 (peptide)
peptide: MWKLIEFWG
HELM: PEPTIDE1{M.W.K.L.I.E.F.W.G}$PEPTIDE1,PEPTIDE1,3:R3-6:R3$$$V2.0
SMILES: CC[C@H](C)[C@@H]1NC(=O)[C@H](CC(C)C)NC(=O)[C@@H](NC(=O)[C@H](Cc2c[nH]c3ccccc23)NC(=O)[C@@H](N)CCSC)CCCCNC(=O)CC[C@@H](C(=O)N[C@@H](Cc2ccccc2)C(=O)N[C@@H](Cc2c[nH]c3ccccc23)C(=O)NCC(=O)O)NC1=O
Kd: ≤ 400 nM

B12: SEQ ID NO: 233 (peptide)
peptide: DWFLICAWK
HELM: PEPTIDE1{D.W.F.L.I.C.A.W.K}$PEPTIDE1,PEPTIDE1,1:R3-9:R3$$$V2.0
SMILES: CC[C@H](C)[C@@H]1NC(=O)[C@H](CC(C)C)NC(=O)[C@H](Cc2ccccc2)NC(=O)[C@H](Cc2c[nH]c3ccccc23)NC(=O)[C@@H](N)CC(=O)NCCCC[C@@H](C(=O)O)NC(=O)[C@H](Cc2c[nH]c3ccccc23)NC(=O)[C@H](C)NC(=O)[C@H](CS)NC1=O
Kd: ≤ 400 nM

B13: SEQ ID NO: 240 (peptide)
peptide: MWILISFW
HELM: PEPTIDE1{[ac].M.W.I.L.I.S.F.W.[O=C(O)CCCN[*:1]]}$$$$V2.0
SMILES: CC[C@H](C)[C@H](NC(=O)[C@H](CC(C)C)NC(=O)[C@@H](NC(=O)[C@H](Cc1c[nH]c2ccccc12)NC(=O)[C@H](CCSC)NC(C)=O)[C@@H](C)CC)C(=O)N[C@@H](CO)C(=O)N[C@@H](Cc1ccccc1)C(=O)N[C@@H](Cc1c[nH]c2ccccc12)C(=O)NCCCC(=O)O
Kd: ≤ 400 nM

Binder: Ac-LISFWG-OH [SEQ ID NO: 238]
Kd: > 10000 nM and ≤ 30000 nM

Now from value to binder:

Kd: ≤ 400 nM
Binder: WPQSILDEHGQKVW (not fully specified; Ac-NH-WPQSILDE*H-Chg-QK*VW-NH2) [SEQ ID NO: 468]

Kd: ≤ 400 nM
Binder: Ac-MWFLIAFWG-OH [SEQ ID NO: 274]

Kd: ≤ 400 nM
B4: SEQ ID NO: 437 (peptide)
peptide: WAQSILDEHVQKVWG
HELM: PEPTIDE1{[ac].W.[meA].Q.S.I.L.D.E.H.V.Q.K.V.W.G.[am]}$PEPTIDE1,PEPTIDE1,9:R3-13:R3$$$V2.0
SMILES: CC[C@H](C)[C@H](NC(=O)[C@H](CO)NC(=O)[C@H](CCC(N)=O)NC(=O)[C@H](C)N(C)C(=O)[C@H](Cc1c[nH]c2ccccc12)NC(C)=O)C(=O)N[C@@H](CC(C)C)C(=O)N[C@@H](CC(=O)O)C(=O)N[C@H]1CCC(=O)NCCCC[C@@H](C(=O)N[C@H](C(=O)N[C@@H](Cc2c[nH]c3ccccc23)C(=O)NCC(N)=O)C(C)C)NC(=O)[C@H](CCC(N)=O)NC(=O)[C@H](C(C)C)NC(=O)[C@H](Cc2c[nH]cn2)NC1=O

Kd: ≤ 400 nM
Binder: WPQSILDKHGQDVW (not fully specified; Ac-NH-WPQSILDK*H-Chg-QD*VW-NH2) [SEQ ID NO: 462]

Kd: ≤ 400 nM
B6: SEQ ID NO: 415 (peptide)
peptide: WAQKILDEHGSRVWG
HELM: PEPTIDE1{W.[meA].Q.K.I.L.D.E.H.[O=C([C@@H](N[*:1])C1CCCCC1)[*:2]].S.R.V.W.G.[am]}$PEPTIDE1,PEPTIDE1,4:R3-8:R3$$$V2.0
SMILES: CC[C@H](C)[C@@H]1NC(=O)[C@@H](NC(=O)[C@H](CCC(N)=O)NC(=O)[C@H](C)N(C)C(=O)[C@@H](N)Cc2c[nH]c3ccccc23)CCCCNC(=O)CC[C@@H](C(=O)N[C@@H](Cc2c[nH]cn2)C(=O)N[C@H](C(=O)N[C@@H](CO)C(=O)N[C@@H](CCCNC(=N)N)C(=O)N[C@H](C(=O)N[C@@H](Cc2c[nH]c3ccccc23)C(=O)NCC(N)=O)C(C)C)C2CCCCC2)NC(=O)[C@H](CC(=O)O)NC(=O)[C@H](CC(C)C)NC1=O

Kd: ≤ 400 nM
B7: SEQ ID NO: 416 (peptide)
peptide: WAQKILDEHGSRVWG
HELM: PEPTIDE1{[ac].W.[meA].Q.K.I.L.D.E.H.[O=C([C@@H](N[*:1])C1CCCCC1)[*:2]].S.R.V.W.G.[am]}$PEPTIDE1,PEPTIDE1,5:R3-9:R3$$$V2.0
SMILES: CC[C@H](C)[C@@H]1NC(=O)[C@@H](NC(=O)[C@H](CCC(N)=O)NC(=O)[C@H](C)N(C)C(=O)[C@H](Cc2c[nH]c3ccccc23)NC(C)=O)CCCCNC(=O)CC[C@@H](C(=O)N[C@@H](Cc2c[nH]cn2)C(=O)N[C@H](C(=O)N[C@@H](CO)C(=O)N[C@@H](CCCNC(=N)N)C(=O)N[C@H](C(=O)N[C@@H](Cc2c[nH]c3ccccc23)C(=O)NCC(N)=O)C(C)C)C2CCCCC2)NC(=O)[C@H](CC(=O)O)NC(=O)[C@H](CC(C)C)NC1=O

Kd: ≤ 400 nM
B8: SEQ ID NO: 421 (peptide)
peptide: WAQKGLDEHVQRVWG
HELM: PEPTIDE1{[ac].W.[meA].Q.K.[O=C([C@@H](N[*:1])C1CCCCC1)[*:2]].L.D.E.H.V.Q.R.V.W.G.[am]}$PEPTIDE1,PEPTIDE1,5:R3-9:R3$$$V2.0
SMILES: CC(=O)N[C@@H](Cc1c[nH]c2ccccc12)C(=O)N(C)[C@@H](C)C(=O)N[C@@H](CCC(N)=O)C(=O)N[C@H]1CCCCNC(=O)CC[C@@H](C(=O)N[C@@H](Cc2c[nH]cn2)C(=O)N[C@H](C(=O)N[C@@H](CCC(N)=O)C(=O)N[C@@H](CCCNC(=N)N)C(=O)N[C@H](C(=O)N[C@@H](Cc2c[nH]c3ccccc23)C(=O)NCC(N)=O)C(C)C)C(C)C)NC(=O)[C@H](CC(=O)O)NC(=O)[C@H](CC(C)C)NC(=O)[C@H](C2CCCCC2)NC1=O

Kd: > 400 nM and ≤ 1000 nM
B9: SEQ ID NO: 420 (peptide)
peptide: WAQKGLDEHVQRVWG
HELM: PEPTIDE1{W.[meA].Q.K.[O=C([C@@H](N[*:1])C1CCCCC1)[*:2]].L.D.E.H.V.Q.R.V.W.G.[am]}$PEPTIDE1,PEPTIDE1,4:R3-8:R3$$$V2.0
SMILES: CC(C)C[C@@H]1NC(=O)[C@H](C2CCCCC2)NC(=O)[C@@H](NC(=O)[C@H](CCC(N)=O)NC(=O)[C@H](C)N(C)C(=O)[C@@H](N)Cc2c[nH]c3ccccc23)CCCCNC(=O)CC[C@@H](C(=O)N[C@@H](Cc2c[nH]cn2)C(=O)N[C@H](C(=O)N[C@@H](CCC(N)=O)C(=O)N[C@@H](CCCNC(=N)N)C(=O)N[C@H](C(=O)N[C@@H](Cc2c[nH]c3ccccc23)C(=O)NCC(N)=O)C(C)C)C(C)C)NC(=O)[C@H](CC(=O)O)NC1=O

Kd: > 400 nM and ≤ 1000 nM
B10: SEQ ID NO: 422 (peptide)
peptide: W[NMeA]QK[Chg]LDEHVQRVWG-NH2
modifications: lactam 4-8; not fully specified (N-terminus); printed as H17C8C(O)NH-W-NMeA-QK*-Chg-LDE*HVQRVWG-NH2

Kd: > 400 nM and ≤ 1000 nM
Binder: Ac-WILIAFWG-OH [SEQ ID NO: 263]
